Laboratory results from the supplement of paper PMC12455559.

Assay: purified protein yield per well (BCA); higher = higher soluble expression
In short: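 Expression was done in E. coli C41(DE3), using 2 mL autoinduction cultures with 100 µg/mL kanamycin incubated at 37 °C for 2 h and at 18 °C for 40 h. Protein was purified on Ni-charged magnetic beads and released by SUMO protease cleavage. Yield of purified protein per well was measured with the Pierce Rapid Gold BCA kit; values below 25 ug (0.1 mg/mL) are below detection.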

Sequence | purified protein yield per well
EPYASIVIVPGYGMIEASIQDWGPFFASWGIIAMTIGTNNPYDFPEERVEALLDAIETIKQENDRINSPIYEKVDLNSFAVSGWSMGGGGAQLAAVIEPTLKAVIALCPWLDNWVLEPDDLNHSVPTLIFSGQYDVNAPPYLHANIHYNYTPSTTDKLLFEVEYGDHYVANGPDGGSGYVGDRAHEWINNYLLGD [TEP055] | < 25 µg
FDPPNGAVIMVPGFRGTPPVYDWWGPMLASVGVITMIIETNTPEDSLEARKNAFIAGVEFLSGENDNPASPIRDKLDTSNIAIMGHSLGGGASLRAAEELGSRIKAVIPLTPYCCELGQSFEGNLSGVSVPTLIIASAEDAIAPPAEHARMLYDSVNAATEKVYLEFATGNHMLPSNSGQDLETLGTYVYAFIKENFTDNPRYADFIFGDGEEQFSTYEISQ [TEP136] | < 25 µg
FGAVAISPGFTAAWSSLSWLGPRLASHGFVVIGIETNSRLDQPASRGDQLLAALDWAVNQSPAASRIDRNRLAVAGHSMGGGGTLEAAKDRPSLKAAIPIAPWNLDKTWPEIRTPTLILGGENDLIAPVASHAEPFYNSIPASAEKAYLELDNESHFFPQFSNTIMAKYMISWLKRFVDNDTRYDQFLCP [TEP090] | < 25 µg
FGGGTIYYPTSTADGTFGAVVISPGFTAYESSIAWLGPRLASQGFVVFTIDTNTTLDQPDSRGRQLLAALDYLTQRSSVRTRVDATRLGVMGHSMGGGGSLEAAKSRPSLKAAIPLTGWNTDKTWPELRTPTLVVGADGDSIAPVATHSEPFYESLPGSLDKAYLELRGASHFTP [TEP045] | < 25 µg
FNPGSGGGSGGANTCETNCGFERGPDPTLSGLRSGTGPYSVSTVDVPYGSAGFGGGTIHYPTNTSGGKMGAIAVIPGFVSPESSIGWWGPALASQGFVVLTMGTQTPLDSPSARARQLTAGLDHLVEQSNSSSSAISGLVDPSRVAMVGWSMGGGGTLKNAAGDRLSAAIPLAPFDMDMSSYKNIETPTMILGCESDIIAAADLFAVPSYEHIPESTDKAYFEFAGQGHWCANGNNDNNELLSILGVSWMKRYLDKDTRYDQFLCGTNHSSNSAFSQVRDTCN [DP064] | < 25 µg
FPAVVLAVSKQPHTDTRALTDEIKTALREIEPSLPAEITVNAELFQMKRFIDTGVWNVGEALAIGAVVVQPTGAGAQTGEFRKGPDPTEASVRASSGTFTTTTASVSSLVAGFGGGTIHYPTDTSQGTYGAIAFAPGFTASSASYSWIGPRIASQGFVVFLINTDSRYDFPASRATQLQNALNYLVNSSVAASRIDLNRLAVG [TEP030] | < 25 µg
FRSRGATIFYPEEPSHPLASIVIVPGWSSSERSIRAWGPFLASHGMVTMTIGTNNPPRDFPEQRAAALLDAIATLRAENARDTSPIFEKLDLSRIAVGGWSMGGGGAQLAAVQDPALKAAIGLCPWHEAPDIFEHTVPLLIIGGEKDRRAPFNEHGLVHYCTTPPATPKLLFEVRDAGH [TEP100] | < 25 µg
FSAPGPSAPCSNCTRGPAPTATALKASSGPFTTAKFSVSGFLKGFGDSTVYYPTNTTGKMGAIAVIPGYLSYENSIDWWGPRLASHGFVVMTMNTETIYDQPDSRASQLSEALDYLIAQSNSSSSPIYNKVDSTRLGAIGWSMGGGGSLKLSTQRSINAIIPQAPWYLGSSAFSGIKTPALILACSADTVAPVAQHASPFYNQIPNSTPKAFLEIYGGSHFCANSGYPNQSMLGMYGIAWMKRFIDFDSRYSQFLCGPNHESDLAISDYRQNCPY [ESM044] | < 25 µg
FSFTPPPEPNPDPDPTPPCEVDCDFTRGPDPSSSYLEAASGPYSVNTINVSSSVSGFGGGTVYYPTGTSGLMGAISIAPGFFAAESSIGWWGPRLASHGFVVITIATNSIFDGTDSRATQLDRALDYVINQSNSGSSAISGMVDSNRVGAMGWSMGGGGSLILGSGTRLSAVIPLAPWESGSNNFDQMTAPTLIIACENDGTAPVASHASPFYNTIPGTTDKAFLEINGGGHSCANGGGVNG [ESM098] | < 25 µg
FTASQSSIQWYGPLLAGEGFVVITIDTNTIFDQPDSRATQLLAALDYLTGSSDVRHIVDPNRLAVAGWSMGGGGSLEAAVRRPSLKAAIPLAGWHTTKTFNTAVPTLVVACENDAVAGNAQHSGPFYDGLPASTPKAYLEIAGGDHTCVGSYDINIATPVVAWAKRWVNGDTSASAQLCPPKPIGGPISDSKANCPY [ESM171] | < 25 µg
FTPSPDPTPDPEPTPEPCQGDCDFTRGPDPSISYLEADNGPYTVRTIDVPSSAGSFNGGTIHYPSGTSGTMGAIAVASGFLAPEGDIIWWGPRLASHGFVVITISTPTFDGEDRRATQLSEALDYVIAQSNSNGSDISGMVDGSRLGAMGWSMGGGGTLQLASGTRLSAAIPLAPWNSGSNNFDQIETPTLIIACENDGTAAVGTHASPFYHSIPASTDKAFLEINGGGHSCANGGGTNGGLLGKYGVSWMKLFMDDDSRYSQFLCGPNHAANSAISEYRDTCNY [DP049] | < 25 µg
GAAGNPYERGPDPTESSIEAPRGHYAVSETSVSALGVTGFGGGTIYYPTSTADGTFGAVAIAPGYTSLQSSIAWLGPRLASQGFVVITIDTRTTLDQPAGRGAQLLAALDYLTRRSSVRNRIDSGRLGVMGHSMGGGGSLEAAKGRPSLQAAIPLTGWNLDKTWPEIRVPTLLVGADGDTIAPVATHSQPFYQSLPSTLDRAYLELNNATHFTPNRPDTTIAKYSVSWLKRFIDNDTRYEQFLCPLPRPSRTIEEYRGNCPHTS [TEP007] | < 25 µg
GASAPAANPYERGPAPTEQALLAPLGSFTYSTVVVPRSQVTGFGGGTIYYPDDTSQGTYGGVVAVPGFVSPEGAVAWLGPHMASRGFVVFTIATTSPFDQPTARGKQLLAALDHLTQRTPDAVRKRLDPARLAVTGHSMGGGGALYASGARPGIKAAIPLAPYNQDKTWNEVATPTLVVGGSADQIASVDKHARPFYNSLTGARDRGLLNVAAADHGDFTQENSITGRYAAAWLKRFVDEDTRYDQYLCPATGGPGVTEYSASCPLS [TEP151] | < 25 µg
GFGGGMIYYPTDTSQGTFGGIAISPGYTAQFSVELSWMGPWLASHGFVVIGIETNSPTDFDQARGTQLLAALDYLTQQSPVRTRVDASRLAVAGHSMGGGGALNAAIRRPSLKATVGITPFLPSSNLANDHVPTMLIAGQADTVVSTSSVINQYNSLPATTKSVFLEVAGGDHGFMVGRPNTVMVRTMLPFLKIFVDNDSRYSKFLCPLMDSSGITQYRST [ESM170] | < 25 µg
GGGGGGGGGGNSGDLPAPNPCTANCGFEIGPNPSLSFLRNGPGPLPVSTTTVPRSVDGFGGGTIYYPSNVSREMAAITISPGFTARQGGVAWWGSALASHGFVVMTIDTNSRFDQPASRGRQLDSALSYLISESDRRNSPISGLVDESRLATMGHSMGGGGSLHSASRNRISAAMPLAPWNQSGSGAFNNINVPTMILACESDTTARVGTHAIPFYNRIPNSTDKVYLEINNGNHSCSTGRSGNDRALLRTYGVSWMKRFLDKDGRYNQFLCGPNHTANSSISDFRDTCVF [DP063] | < 25 µg
GPFAVSSVTVPAGSGPGFNDGTIYYPTDTSQGTFGAVVIMPGFVAVQGQIAWYGPRLASQGFVVMTMDSNALWDFPSDRSRQQLAALNYLTTKSPVKSRIDPNRLALMGWSMGGGGTLESAAANPSLKAAIPLAPWDITNPGDQISVPTMIFGADGDTVAPVSTFTRPAYDALTNTHDKAFVELKGADHFTFASPNTTVAKYSISWLKRFVDNDTRYDQFLCPIPN [TEP056] | < 25 µg
GPGMEGNPYQRGPAPTTASIEAPTGAFAVSNASVPGGNGFGGGTLTYPTDTSQGTFGAVVVTPGFLSPEMKWYGPRLASQGFVVLTIATNTAVDQPGARAAQMLAALRYLVEQSPVKNRVDGSRLAVMGHSMGGGGSLEAAEAYPALKAAIPLEPWDLGKSFSAVRTPTLIVGGQSDWIAPVGQHAVPFYNSIPAGVNKAYIELAGGSHFVPMSPNVTIAKYSIAWLKRFVDNDTRYDQFLCPVPQAAALSVSKGTCPHT [TEP175] | < 25 µg
GPTDFQRGPAPTEQSITAERGPFATAQTTVDGPNFNKGTAYYPTDTSQGTFGAVAISPGFASPEAVVSWYGPRLASQGFVVLTLETNSGSDLPDSRATQLVNALDFLVQSSSVKDRIDPNRLAVMGHSMGGGGSLKASELRPSLKAAIPLMPWNNDKTWQGDRVPTMIMGAQNDAIASPASHAKPFYDSLTSAPEKAYLELRSEGHLVAVSPNVTIAKYSIAWLKRFVDEDVRYEQFLCPAPTANLQISEYRNTCPTG [DP025] | < 25 µg
GPYQVAYYSSYPPVPEFSAATIYFPANKGEDFAGVAISPGFVESQENMSWWGRHLASHGFAVLTLDTNELRDNPSLRADALMAAIEVLRNEGDRMGSTLRGKILKDRMAIMGHSMGGGGTLIAANAHSADLKAAIPFTPWQPDGDFSTISIPTLVIAGENDRIAVMDIHGASLSTIHHEGDEGV [TEP125] | < 25 µg
GQSCDSLLLQSITNPGPFPVNNIDENSGIRNGPNYNGSTIYYPANNVNTLYSSIIMVPGFMNTELTIQNWGPFFASHGIITMTIGANGLTDTHIQRRDALLDAIVSLKNENQRVASPLFGKIDTFSIAVGGVSKGGGGAQLVPAIDLSIKAIVSLYPWLDNPTSSDLNHSVPVIIISGQLDALAPPSLHADIHYNLTPNTTNKLKYEVAFGTHDVISGPNGGNGEVGIRVISWLQNFLLSDSCYCPITILDASTSSSYITNVVCSNTTVGISQLEPYFLKKVLKIIDVLGREAEGNKNEPLFYIYNDGTVEKKIIIE [TEP017] | < 25 µg
GRMDSNVIDASGYSDLSLSFDRTTSGLDFGESGRVSVSINGGSFTVLESLRRASGRTTLQLGSSADNSSIQIRYQTFASSFYEIYTIDNIVIEGNSDSPPPPPPTGDLAAIGAYLETGGTATTPDQFSFTNTGDINIDSLTIDLSGGNASPVFDPNGVSFTVTGSDNVGFSGNFGLSGNSLLTLNFIDFGPGETFSFSGDLDDSNGSYTTGADVMGAELTVSASGNPSVSASFTVDSSNADRAVVNIGGSTPPPPIGGGCGPDPTVASLEASTGPFSFSNIDVPSSAQGFRNGTIYYPTNAPSDCTFGVISVVPGFLANESSIDWWGPRLASHGFIVITINTNTITDQPNSRALQSIAALNYAVNLGNSSSSAIGGKVDSSKQGVMGWSMGGGGALRAAADNPYLKAAMPQAPFNSGPNDFDEITVPTLIIACENDTVASVGIHASPFYNAISSTTEKGFLEINNGNHSCANGGSNRDILGKYGVSWMKRFMDDDTRYSQFLCDVNHTSDSAISDYRENCPY [TEP172] | < 25 µg
HAPAHAPAHQPVVAHHHAPFAVRTTVVPKTAVKAFGGGVIYTPQDTGKAVLGAVVITPGFTDTNADEKELAELVASQGFVAFAIDTLDTGDLPDQRATEILAAADYLTGQSAVRSEVSAKDVGLIGYSFGGGGTMQAAQARPSIKAAIGLMPFDFPPASDPNAQYPAYPKLTTPTLVITGQKDDVADPADFGKPAYDSIPGGTPKQYLELKGLDHYAGEHTPVAAIRNAVTAFLKRYLDGNSAYAKLICPAPKVGGPITASYSSCPKG [ESM190] | < 25 µg
